Patent US20250207119A1

Assays:
[1] = molecular target: ADAM17 from R & D Systems (UniProt P78536); test: cell-based or functional assay
[2] = molecular target: Human ADAM10 from R & D Systems (human) (UniProt O14672); test: cell-based or functional assay
Human ADAM10 from R & D Systems (human), sequence (O14672 214-672 limits assumed): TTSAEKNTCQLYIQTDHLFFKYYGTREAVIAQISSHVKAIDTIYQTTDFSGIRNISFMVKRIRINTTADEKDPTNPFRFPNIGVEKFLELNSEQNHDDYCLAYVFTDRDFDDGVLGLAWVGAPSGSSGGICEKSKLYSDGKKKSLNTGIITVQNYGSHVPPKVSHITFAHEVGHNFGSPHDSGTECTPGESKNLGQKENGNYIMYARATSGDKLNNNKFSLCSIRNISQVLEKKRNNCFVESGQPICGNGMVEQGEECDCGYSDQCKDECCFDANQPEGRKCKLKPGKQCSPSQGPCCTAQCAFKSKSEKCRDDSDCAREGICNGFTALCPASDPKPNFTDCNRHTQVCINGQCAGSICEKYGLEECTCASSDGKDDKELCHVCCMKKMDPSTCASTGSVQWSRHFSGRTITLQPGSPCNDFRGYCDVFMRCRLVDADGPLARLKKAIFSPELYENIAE

ADAM17 from R & D Systems, sequence (P78536 215-671 limits assumed): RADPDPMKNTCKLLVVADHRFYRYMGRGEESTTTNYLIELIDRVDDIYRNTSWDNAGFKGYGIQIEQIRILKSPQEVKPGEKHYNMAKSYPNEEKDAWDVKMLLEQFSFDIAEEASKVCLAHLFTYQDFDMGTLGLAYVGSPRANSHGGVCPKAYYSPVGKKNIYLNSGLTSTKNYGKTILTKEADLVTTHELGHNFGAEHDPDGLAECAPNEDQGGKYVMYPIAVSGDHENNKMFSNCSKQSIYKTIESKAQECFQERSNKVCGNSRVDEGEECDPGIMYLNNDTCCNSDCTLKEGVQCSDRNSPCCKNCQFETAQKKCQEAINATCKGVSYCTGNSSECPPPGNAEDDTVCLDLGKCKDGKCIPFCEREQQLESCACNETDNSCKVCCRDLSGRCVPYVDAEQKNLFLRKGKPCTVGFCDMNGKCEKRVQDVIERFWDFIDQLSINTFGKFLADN

percent inhibition of ADAM17 activity [1]: 33 % at 6.7 µM
IC50 (nM), inhibition of ADAM10 cleavage of the fluorescent substrate PEPDAB064 [2]: 49 nM
B1: Cys151-pegylated SEQ ID NO: 1 (peptide, not shown: small tags and cut ends)
chain: NPLNKYIRHYEGLSYNVDSLHQKHQRAKRAVSHEDQFLRLDFHAHGRHFNLRMKRDTSLFSDEFKVETSNKVLDYDTSHIYTGHIYGEEGSFSHGSVIDGRFEGFIQTRGGTFYVEPAERYIKDRTLPFHSVIYHEDDINYPHKYGPQGGCADHSVFERMRKYQMTGVEEVTQIPQEEHAANGPELLRK
modifications: 10 kDa maleimide PEG on Cys151
